Results from PMC4121237, “Engineering Neprilysin Activity and Specificity to Create a Novel Therapeutic for Alzheimer’s Disease” (PLoS ONE, 2014).

Legend:
wild-type NEP = biological target: T1, wild-type NEP (Homo sapiens, UniProt P08473); test: Inhibition of Aβ1–40 cleavage activity, fluorescence polarisation; type: biochemical; conditions: enzyme wild-type NEP 20 nM; Aβ1–40 substrate 10 µM
T1 construct: DNA encoding amino acids 52–749 of human NEP variants was amplified by PCR; made in house; host or cells: CHO suspension cells (transient, secreted)
T1 sequence (P08473 53-750): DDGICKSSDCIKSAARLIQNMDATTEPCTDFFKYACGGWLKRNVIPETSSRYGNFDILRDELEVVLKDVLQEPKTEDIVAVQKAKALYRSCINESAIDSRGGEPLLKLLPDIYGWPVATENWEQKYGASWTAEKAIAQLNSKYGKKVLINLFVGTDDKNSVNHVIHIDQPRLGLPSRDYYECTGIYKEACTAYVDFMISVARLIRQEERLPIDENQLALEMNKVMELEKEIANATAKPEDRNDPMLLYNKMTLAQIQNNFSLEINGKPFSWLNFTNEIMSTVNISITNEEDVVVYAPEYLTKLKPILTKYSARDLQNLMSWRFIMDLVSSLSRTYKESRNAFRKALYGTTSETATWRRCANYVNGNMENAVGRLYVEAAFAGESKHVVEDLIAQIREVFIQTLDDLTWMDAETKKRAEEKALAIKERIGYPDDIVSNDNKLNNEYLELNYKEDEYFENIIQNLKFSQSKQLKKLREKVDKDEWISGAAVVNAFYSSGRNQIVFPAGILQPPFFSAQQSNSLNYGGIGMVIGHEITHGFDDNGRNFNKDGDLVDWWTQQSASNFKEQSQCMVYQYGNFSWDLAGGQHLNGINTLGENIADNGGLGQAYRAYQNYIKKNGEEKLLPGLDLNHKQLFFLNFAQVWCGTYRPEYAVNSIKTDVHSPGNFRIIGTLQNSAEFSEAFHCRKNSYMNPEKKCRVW
Experimental: (§1) The effect of inhibitors on NEP activity was determined using the above fluorescence polarisation assay to measure the rate of Aβ1–40 cleavage with a substrate concentration of 10 µM, an enzyme concentration of 20 nM and inhibitor concentrations in the range 2 nM to 100 µM.

NEPv (NEP G399V/G714K) = biological target: T2, NEPv (NEP G399V/G714K) (Homo sapiens, UniProt P08473, G400V/G715K); test: as above; type: biochemical
T2 construct: DNA encoding amino acids 52–749 of human NEP variants was amplified by PCR; made in house; host or cells: CHO suspension cells (transient, secreted)
T2 sequence (P08473 53-750 G400V/G715K): as the sequence (P08473 53-750) above, with G348V, G663K counted along it
Experimental: as §1

NEP G714K = NEP G714K (Homo sapiens, UniProt P08473, G715K); test: biochemical
NEP G714K, sequence (P08473 53-750 G715K): as the sequence (P08473 53-750) above, with G663K counted along it
Experimental: as §1

NEP G399V = NEP G399V (Homo sapiens, UniProt P08473, G400V); test: biochemical
NEP G399V, sequence (P08473 53-750 G400V): as the sequence (P08473 53-750) above, with G348V counted along it
Experimental: as §1

Neurokinin B = test: Steady-state kinetics of peptide cleavage, fluorescence polarisation; type: biochemical; conditions: substrate Neurokinin B; 37°C, pH 7.4
Experimental: (§2) For detailed kinetic characterisation of peptide cleavage by NEP, a similar assay to that above was used with modifications based on a published method. Peptides were synthesised by Bachem using 9-fluorenylmethyloxycarbonyl solid-phase peptide synthesis and were labelled with a N-terminal 5(6)FAM via a ε-aminocaproic acid linker and a C-terminal biotin via a lysine linker (Table S1). Purified peptides were supplied as trifluoroacetate salts with a purity ≥95%. The assay was performed in a 96-well microtitre plate and contained 50 mM HEPES (pH 7.4), 100 mM NaCl, 0.05% (w/v) BSA (Buffer A), 1–200 µM peptide substrate and 1–500 nM NEP protein. Reactions were incubated at 37°C before being stopped at various time points between 2 and 360 min by transferring 5 µL aliquots to 245 µL Buffer A containing 2 mM 1,10-phenanethroline (Sigma) and 2 µM avidin (Invitrogen). For peptide substrates containing disulphide bonds, 1 mM tris(2-carboxyethyl)phosphine (Thermo Scientific) was added to the stop solution. The fluorescence polarisation of the resulting solution was measured on a Victor plate reader and the amount of substrate cleaved was determined with reference to substrate-only controls with and without avidin. Initial rates were obtained by linear regression of the linear regions of time courses. Enzyme velocity was plotted as a function of substrate concentration and the Michaelis-Menten equation was used to fit the data, giving the parameters kcat and KM.

Neurokinin A = test: as above; type: biochemical; conditions: substrate Neurokinin A; 37°C, pH 7.4
Experimental: as §2

Arg-vasopressin = test: as above; type: biochemical; conditions: substrate Arg-vasopressin; 37°C, pH 7.4
Experimental: as §2

GRP = test: as above; type: biochemical; conditions: substrate GRP; 37°C, pH 7.4
Experimental: as §2

α-endorphin = test: as above; type: biochemical; conditions: substrate α-endorphin; 37°C, pH 7.4
Experimental: as §2

Glucagon = test: as above; type: biochemical; conditions: substrate Glucagon; 37°C, pH 7.4
Experimental: as §2

Bradykinin = test: as above; type: biochemical; conditions: substrate Bradykinin; 37°C, pH 7.4
Experimental: as §2

ANP = test: as above; type: biochemical; conditions: substrate ANP; 37°C, pH 7.4
Experimental: as §2

Substance P = test: as above; type: biochemical; conditions: substrate Substance P; 37°C, pH 7.4
Experimental: as §2

GLP-1 = test: as above; type: biochemical; conditions: substrate GLP-1; 37°C, pH 7.4
Experimental: as §2

Neurotensin = test: as above; type: biochemical; conditions: substrate Neurotensin; 37°C, pH 7.4
Experimental: as §2

γ-endorphin = test: as above; type: biochemical; conditions: substrate γ-endorphin; 37°C, pH 7.4
Experimental: as §2

Somatostatin 14 = test: as above; type: biochemical; conditions: substrate Somatostatin 14; 37°C, pH 7.4
Experimental: as §2

Aβ1–40 [1] = test: as above; type: biochemical; conditions: substrate Aβ 1–40; 37°C, pH 7.4
Experimental: as §2

Nociceptin = test: as above; type: biochemical; conditions: substrate Nociceptin; 37°C, pH 7.4
Experimental: as §2

Angiotensin = test: as above; type: biochemical; conditions: substrate Angiotensin; 37°C, pH 7.4
Experimental: as §2

Aβ1–42 = biological target: T3, Aβ1–42 (Homo sapiens, UniProt P05067); test: Endpoint degradation assay with ELISA read-out; type: biochemical; conditions: 1 hour at room temperature; Aβ42 ELISA
T3 construct: Aβ 1-42^a
T3 sequence (P05067 672-713): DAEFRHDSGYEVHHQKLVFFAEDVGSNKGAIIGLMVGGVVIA
Experimental: (§3) Supplementary file pone.0104001.s001.tif: Figure S1 Degradation of Aβ1–40 and Aβ1–42 by NEP wild-type and NEPv. Measurement of the degredation of Aβ1–40 (A) and Aβ1–42 (B) was performed by incubating peptide and either wild-type NEP (▪) or NEPv (Δ) for 1 hour at room temperature. The reaction was stopped by the addition of 1.10-phenanthroline to a final concentration of 10 µM. 50 µl (Aβ40 analysis) or 100 µl (Aβ42 analysis) of the reaction mix was transferred to an ELISA plate. Aβ40 and Aβ42 concentrations after degradation were determined using Invitrogen human Aβ40 ELISA kit (Invitrogen, California, US), and Innotest β-amyloid RUO (1–42) ELISA (Innogenetics, Gent, Belgium). […] (TIF) Click here for additional data file.

Endothelin-1 = test: Steady-state kinetics of endothelin-1 cleavage, stopped assay with RP-HPLC; type: biochemical; conditions: substrate Endothelin-1 (unlabelled); RP-HPLC, 10 min at 37°C
Experimental: Kinetic parameters for cleavage of endothelin-1 by NEP were determined using a stopped assay in which the amount of substrate cleaved was measured using reversed-phase HPLC (RP-HPLC). Endothelin-1 was incubated at 12.5–200 µM in the presence of wild type NEP or NEPv and reactions were stopped after 10 min at 37°C by the addition of an equal volume of 1∶1∶1 water:acetonitrile:TFA containing 2 mM tris(2-carboxyethyl)phosphine (Thermo Scientific). RP-HPLC spectra were recorded using an Agilent 1260 Infinity system. Injections of 20 µL were made for each sample and analytes were separated by elution on an Agilent Polaris C8-A stationary phase column (4.6×100 mm, 3 µm) at 1.5 mL min^−1 using a linear binary gradient of 10–90% acetonitrile in water with 0.1% (v/v) TFA over 15 minutes at 40°C. Signal intensity for intact endothelin-1 was monitored at 210 nm and relative peak area was determined by manual integration of the baseline. Kinetic parameters were derived from the activity data as described above.

Aβ1–40 [2] = test: Endpoint degradation assay with ELISA read-out; type: biochemical, human; conditions: 1 hour at room temperature; Aβ40 ELISA
Experimental: as §3

CC(C)C[C@H](NP(=O)(O)O[C@@H]1O[C@@H](C)[C@H](O)[C@@H](O)[C@H]1O)C(=O)N[C@@H](Cc1c[nH]c2ccccc12)C(=O)O [Phosphoramidon, phosphoramidon]
IC50 (wild-type NEP): < 10 nM | potency lower on NEPv than for wild-type NEP (NEPv (NEP G399V/G714K); NEPv versus wild-type NEP): > 2000 fold | IC50 (NEPv (NEP G399V/G714K); enzyme NEPv 20 nM, Aβ1–40 substrate 10 µM): 21000 nM | IC50 (NEP G714K): 100 nM | IC50 (NEP G399V): 610 nM

B1: wild-type NEP: soluble extracellular domain (amino acids 52–749) of wild type human NEP (neprilysin), tagged, recombinantly expressed (protein, UniProt P08473 52-749, looked up, fragment)
chain: YDDGICKSSDCIKSAARLIQNMDATTEPCTDFFKYACGGWLKRNVIPETSSRYGNFDILRDELEVVLKDVLQEPKTEDIVAVQKAKALYRSCINESAIDSRGGEPLLKLLPDIYGWPVATENWEQKYGASWTAEKAIAQLNSKYGKKVLINLFVGTDDKNSVNHVIHIDQPRLGLPSRDYYECTGIYKEACTAYVDFMISVARLIRQEERLPIDENQLALEMNKVMELEKEIANATAKPEDRNDPMLLYNKMTLAQIQNNFSLEINGKPFSWLNFTNEIMSTVNISITNEEDVVVYAPEYLTKLKPILTKYSARDLQNLMSWRFIMDLVSSLSRTYKESRNAFRKALYGTTSETATWRRCANYVNGNMENAVGRLYVEAAFAGESKHVVEDLIAQIREVFIQTLDDLTWMDAETKKRAEEKALAIKERIGYPDDIVSNDNKLNNEYLELNYKEDEYFENIIQNLKFSQSKQLKKLREKVDKDEWISGAAVVNAFYSSGRNQIVFPAGILQPPFFSAQQSNSLNYGGIGMVIGHEITHGFDDNGRNFNKDGDLVDWWTQQSASNFKEQSQCMVYQYGNFSWDLAGGQHLNGINTLGENIADNGGLGQAYRAYQNYIKKNGEEKLLPGLDLNHKQLFFLNFAQVWCGTYRPEYAVNSIKTDVHSPGNFRIIGTLQNSAEFSEAFHCRKNSYMNPEKKCRV
modifications: extracellular domain tag
notes: soluble extracellular domain (amino acids 52–749) of wild type human NEP (neprilysin), tagged, recombinantly expressed
Km (Neurokinin B): 22 ± 2 µM | kcat (Neurokinin B): 20 ± 0.8 s⁻¹ | Km (Neurokinin A): 9.3 ± 1 µM | kcat (Neurokinin A): 17 ± 0.7 s⁻¹ | Km (Arg-vasopressin): 6.2 ± 1 µM | kcat (Arg-vasopressin): 2.8 ± 0.2 s⁻¹ | Km (GRP): 150 ± 30 µM | kcat (GRP): 26 ± 4 s⁻¹ | Km (α-endorphin): 24 ± 0.5 µM | kcat (α-endorphin): 8.9 ± 0.08 s⁻¹ | Km (Glucagon): 25 ± 5 µM | kcat (Glucagon): 4.5 ± 0.4 s⁻¹ | Km (Bradykinin): 32 ± 5 µM | kcat (Bradykinin): 16 ± 1 s⁻¹ | Km (ANP): 8.4 ± 0.8 µM | kcat (ANP): 7.1 ± 0.2 s⁻¹ | Km (Substance P): 16 ± 1 µM | kcat (Substance P): 18 ± 0.6 s⁻¹ | Km (GLP-1): 24 ± 4 µM | kcat (GLP-1): 3.3 ± 0.3 s⁻¹ | Km (Neurotensin): 16 ± 2 µM | kcat (Neurotensin): 13 ± 0.6 s⁻¹ | Km (γ-endorphin): 13 ± 1 µM | kcat (γ-endorphin): 4.8 ± 0.2 s⁻¹ | Km (Somatostatin 14): 7.4 ± 0.9 µM | kcat (Somatostatin 14): 32 ± 1 s⁻¹ | Km (Aβ1–40 [1]): 104 ± 20 µM | kcat (Aβ1–40 [1]): 0.83 ± 0.1 s⁻¹ | Km (Nociceptin): 20 ± 1 µM | kcat (Nociceptin): 11 ± 0.3 s⁻¹ | Km (Angiotensin): 8.6 ± 0.9 µM | kcat (Angiotensin): 8.2 ± 0.3 s⁻¹ | EC50 (Aβ1–42): 144 nM | Km (Endothelin-1): 53 ± 10 µM | kcat (Endothelin-1): 0.68 ± 0.06 s⁻¹ | EC50 (Aβ1–40 [2]): 243 nM
